The text below walks through data of patent publication EP3271384B1 (dated 2023).

The target of the assay is T1, telomerase (hTERT) peptide on HLA-A*02:01 (human).
T1 peptide: RLVDDFLLV
Briefly: multimer staining.

B1: TCR specific for the HLA-A2/hTERT865-873 complex (α5 and β3 chains, SEQ. ID. no. 1 and 2) (TCR, V domains shown)
Valpha: GEQVEQRPPHLSVREGDSAVIICTYTDPNSYYFFWYKQEPGAGLQLLMKVFSSTEINEGQGFTVLLNKKDKQLSLNLTAAHPGDSAVYFCAVRHDSGYNKLTFGKGTVLLVSP
Vbeta: NSKVIQTPRYLVKGQGQKAKMRCIPEKGHPVVFWYQQNKNNEFKFLINFQNQEVLQQIDMTEKRFSAECPSNSPCSLEIQSSEAGDSALYLCASSLSKGGFYEQYFGPGTRLTVL
In the case of B1, the binding result was “recognises”.
